This data set is described as follows: self-splicing fitness, log relative to wild type (ln ratio); higher = more splicing; Tetrahymena group I intron in knt gene, E. coli kanamycin selection, DiMSum; sequences stand for … in CUCUCU…GGAGGGAAAAGUUAUCAGGCAUGCACCUGGUAGCUAGUCUUUAAACCAAUAGAUUGCAUCGGUUUAAAAGGCAAGACCGUCAAAUUGCGGGAAAGGGGUCAACAGCCGUUCAGUACCAAGUCUCAGGGGAAACUUUGAGAUGGCCUUGCAAAGGGUAUGGUAAUAAGCUGACGGACAUGGUCCUAACCACGCAGCCAAGUCCUAAGUCAACAGAUCUUCUGUUGAUAUGGAUGCAGUUCACAGACUAAAUGUCGGUCGGGGAAGAUGUAUUCUUCUCAUAAGAUAUAGUCGGACCUCUCCUUAAUGGGAGCUAGCGGAUGAAGUGAUGCAACACUGGAGCCGCUGGGAACUAAUUUGUAUGCGAAAGUAUAUUGAUUAGUUUUGGAGUACUCGUGGUCG
In outline: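 DiMSum derived fitness as the error-weighted combination of fold changes across replicates, kanamycin versus no kanamycin, normalised to wild type. E. coli BL21(DE3) held the library, which randomised all eight P1ex-region intron nucleotides within the knt kanamycin-resistance gene on pET-22b(+). Six replicate transformations grew overnight at 37°C or 30°C on LB agar with or without 25 μg/mL kanamycin, also containing 100 μg/mL carbenicillin, 50 μM IPTG and 0.2% rhamnose, and pooled colonies were amplicon-sequenced on an Illumina HiSeq 2500.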

± gives the uncertainty stated by the source.

On to GAACAGCAAUAUUACGCUUC, for which the “self-splicing fitness (ln)” value (30 °C) is -4.44 ± 0.19 and the “self-splicing fitness (ln)” value (37 °C) is -3.19 ± 0.2.

Take UCCCAGCAAUAUUACGGAGG: the “self-splicing fitness (ln)” value (30 °C) was -3.51 ± 0.14 and the “self-splicing fitness (ln)” value (37 °C) is -2.23 ± 0.18.

As for CCCGAGCAAUAUUACGAUGU, the “self-splicing fitness (ln)” value reads like this: (30 °C) -3.46 ± 0.25; (37 °C) -2.13 ± 0.27.

In the case of UCGCAGCAAUAUUACGCACU, the “self-splicing fitness (ln)” value is -2.21 ± 0.18 (30 °C) and -0.563 ± 0.2 (37 °C).

As for UUACAGCAAUAUUACGGCAC, the “self-splicing fitness (ln)” value is -1.77 ± 0.17 (30 °C) and -2.26 ± 0.18 (37 °C).

As for AGUAAGCAAUAUUACGAGAG, the “self-splicing fitness (ln)” value (30 °C) is -2.28 ± 0.24 and the “self-splicing fitness (ln)” value (37 °C) is -2.49 ± 0.29.

Take UGACAGCAAUAUUACGGGGC: the “self-splicing fitness (ln)” value (30 °C) is -2.96 ± 0.13 and the “self-splicing fitness (ln)” value (37 °C) was -2.56 ± 0.12.

Take CUGGAGCAAUAUUACGAAUG: the “self-splicing fitness (ln)” value reads like this: (30 °C) -1.88 ± 0.12; (37 °C) 0.0741 ± 0.15.

Take GUACAGCAAUAUUACGACGU: the “self-splicing fitness (ln)” value (30 °C) is -0.603 ± 0.075 and the “self-splicing fitness (ln)” value (37 °C) worked out at 0.215 ± 0.081.

For AGAAAGCAAUAUUACGAAUA, the “self-splicing fitness (ln)” value by setting is: (30 °C) -2.51 ± 0.17; (37 °C) -0.949 ± 0.14.

Regarding AUUUAGCAAUAUUACGAGCC, where the note is “30 °C”, the “self-splicing fitness (ln)” value was -1.74 ± 0.46.

Consider AGGAAGCAAUAUUACGUACC, for which the “self-splicing fitness (ln)” value by setting is: (30 °C) -0.353 ± 0.12; (37 °C) -0.748 ± 0.16.

Regarding ACUUAGCAAUAUUACGGAUG, the “self-splicing fitness (ln)” value by setting is: (30 °C) -1.73 ± 0.13; (37 °C) -1.53 ± 0.2.

For GUUCAGCAAUAUUACGAUCU, the “self-splicing fitness (ln)” value (30 °C) was -0.337 ± 0.095 and the “self-splicing fitness (ln)” value (37 °C) was 0.0505 ± 0.12.

As to GAUCAGCAAUAUUACGUGUG, the “self-splicing fitness (ln)” value by setting is: (30 °C) -0.908 ± 0.044; (37 °C) -0.101 ± 0.06.

Turning to UGACAGCAAUAUUACGCAGG, the “self-splicing fitness (ln)” value runs as follows: (30 °C) -3.54 ± 0.35; (37 °C) -1.4 ± 0.2.

Regarding GCCGAGCAAUAUUACGCACU, the “self-splicing fitness (ln)” value by setting is: (30 °C) -1.64 ± 0.11; (37 °C) -0.365 ± 0.13.

In the case of GGAAAGCAAUAUUACGUGCA, the “self-splicing fitness (ln)” value was -0.965 ± 0.075 (30 °C) and 0.36 ± 0.099 (37 °C).

As for GAUAAGCAAUAUUACGGGUU, the “self-splicing fitness (ln)” value runs as follows: (30 °C) -2.18 ± 0.12; (37 °C) -2.26 ± 0.15.

Regarding GAAGAGCAAUAUUACGCGCA, the “self-splicing fitness (ln)” value was -1.11 ± 0.2 (30 °C) and -1.35 ± 0.14 (37 °C).

With ACCGAGCAAUAUUACGGUAU, the “self-splicing fitness (ln)” value was -3.76 ± 0.2 (30 °C) and -1.81 ± 0.14 (37 °C).

GGGGAGCAAUAUUACGACUA: the “self-splicing fitness (ln)” value was -0.712 ± 0.24 (30 °C) and -0.539 ± 0.29 (37 °C).

For CGGCAGCAAUAUUACGCGUG, the “self-splicing fitness (ln)” value (30 °C) is -1.47 ± 0.1 and the “self-splicing fitness (ln)” value (37 °C) is -0.594 ± 0.11.

As to UUGCAGCAAUAUUACGCUAG, the “self-splicing fitness (ln)” value was -2.94 ± 0.23 (30 °C) and -2.44 ± 0.24 (37 °C).

Regarding UUAUAGCAAUAUUACGCGAA, the “self-splicing fitness (ln)” value (30 °C) was -1.97 ± 0.2 and the “self-splicing fitness (ln)” value (37 °C) is -1.53 ± 0.34.

For GCUGAGCAAUAUUACGCGAA, the “self-splicing fitness (ln)” value (37 °C) was -2.91 ± 0.37.

Regarding CAUAAGCAAUAUUACGUUAG, the “self-splicing fitness (ln)” value reads like this: (30 °C) -1.13 ± 0.083; (37 °C) -0.61 ± 0.11.

Turning to GUUCAGCAAUAUUACGUAAU, the “self-splicing fitness (ln)” value by setting is: (30 °C) 0.434 ± 0.088; (37 °C) 0.484 ± 0.098.

For the sequence UUGCAGCAAUAUUACGUACG, the “self-splicing fitness (ln)” value by setting is: (30 °C) -0.368 ± 0.08; (37 °C) 0.233 ± 0.1.

Consider UUAUAGCAAUAUUACGGGCU, for which the “self-splicing fitness (ln)” value is, setting by setting: (30 °C) -2 ± 0.33; (37 °C) -1.3 ± 0.22.

For CAAUAGCAAUAUUACGGUAA, the “self-splicing fitness (ln)” value is -2.8 ± 0.14 (30 °C) and -2.81 ± 0.18 (37 °C).

For AACCAGCAAUAUUACGUCCG, the “self-splicing fitness (ln)” value was -1.56 ± 0.073 (30 °C) and -0.0163 ± 0.091 (37 °C).

For CCGUAGCAAUAUUACGUUGC, the “self-splicing fitness (ln)” value (30 °C) was -3.53 ± 0.28 and the “self-splicing fitness (ln)” value (37 °C) is -2.04 ± 0.43.

For GGACAGCAAUAUUACGGAGG, the “self-splicing fitness (ln)” value is, setting by setting: (30 °C) -3.52 ± 0.15; (37 °C) -0.672 ± 0.096.

On to UUGCAGCAAUAUUACGUUCG, for which the “self-splicing fitness (ln)” value was -1.16 ± 0.049 (30 °C) and -0.636 ± 0.071 (37 °C).

For the sequence GAUUAGCAAUAUUACGCUGC, the “self-splicing fitness (ln)” value by setting is: (30 °C) -3.07 ± 0.24; (37 °C) -2.25 ± 0.35.

CAAUAGCAAUAUUACGCGGU: the “self-splicing fitness (ln)” value (30 °C) is -3.88 ± 0.19 and the “self-splicing fitness (ln)” value (37 °C) was -3.12 ± 0.2.

As for CAAGAGCAAUAUUACGCUGG, the “self-splicing fitness (ln)” value reads like this: (30 °C) -3.84 ± 0.3; (37 °C) -1.99 ± 0.19.

The values above are taken from the supplement of paper PMC7877785.
